The target of the series is T1, Nogo-66 receptor (NgR)/Fc chimera (rat, UniProt Q99M75 27-447).
T1 sequence: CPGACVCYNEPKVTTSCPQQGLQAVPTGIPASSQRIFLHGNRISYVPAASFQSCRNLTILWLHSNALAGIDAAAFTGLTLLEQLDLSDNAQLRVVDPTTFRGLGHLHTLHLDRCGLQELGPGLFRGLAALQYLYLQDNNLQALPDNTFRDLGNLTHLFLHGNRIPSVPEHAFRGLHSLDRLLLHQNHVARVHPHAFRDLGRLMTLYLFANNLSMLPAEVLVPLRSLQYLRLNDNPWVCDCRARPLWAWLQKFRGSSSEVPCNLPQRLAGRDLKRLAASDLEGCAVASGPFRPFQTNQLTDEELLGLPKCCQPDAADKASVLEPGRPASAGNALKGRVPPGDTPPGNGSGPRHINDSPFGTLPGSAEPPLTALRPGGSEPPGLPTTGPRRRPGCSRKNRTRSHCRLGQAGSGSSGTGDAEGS
As to the kind of experiment: filter binding; three-point estimate, data not shown; Selection buffer PBS pH 7.4, 3 mM MgCl2; RNA 0.5 nM, NgR/Fc 12.5-500 nM for Kd; competition 20 min at 37 C. The settings on record: protein: commercial; tags: human IgG Fc fusion; chain copies: 2; label: 32P.

B1: Clone 6 (ssRNA)
RNA: GGGUUUACCUAGGUGUAGAUGCUCUCUCUAUUUCAUUCGUAGGCUAUUGGUGCCGCAAAUACUAGCUUUACGAAAGUGACGUCUGAACUGCUUCGAAAA
With B1, the binding result is “binds”.

(Values after paper PMC2838799, “Aptamer Antagonists of Myelin-Derived Inhibitors Promote Axon Growth”.)
